Tests used:
Assay in all cases: Kinase Profiling Assay
Type in all cases: biochemical
Conditions in all cases: 100 μM
BrSK2 (h) = target: T1, BrSK2 (h) (Homo sapiens, UniProt Q8IWQ3)
T1 sequence (Q8IWQ3 1-736): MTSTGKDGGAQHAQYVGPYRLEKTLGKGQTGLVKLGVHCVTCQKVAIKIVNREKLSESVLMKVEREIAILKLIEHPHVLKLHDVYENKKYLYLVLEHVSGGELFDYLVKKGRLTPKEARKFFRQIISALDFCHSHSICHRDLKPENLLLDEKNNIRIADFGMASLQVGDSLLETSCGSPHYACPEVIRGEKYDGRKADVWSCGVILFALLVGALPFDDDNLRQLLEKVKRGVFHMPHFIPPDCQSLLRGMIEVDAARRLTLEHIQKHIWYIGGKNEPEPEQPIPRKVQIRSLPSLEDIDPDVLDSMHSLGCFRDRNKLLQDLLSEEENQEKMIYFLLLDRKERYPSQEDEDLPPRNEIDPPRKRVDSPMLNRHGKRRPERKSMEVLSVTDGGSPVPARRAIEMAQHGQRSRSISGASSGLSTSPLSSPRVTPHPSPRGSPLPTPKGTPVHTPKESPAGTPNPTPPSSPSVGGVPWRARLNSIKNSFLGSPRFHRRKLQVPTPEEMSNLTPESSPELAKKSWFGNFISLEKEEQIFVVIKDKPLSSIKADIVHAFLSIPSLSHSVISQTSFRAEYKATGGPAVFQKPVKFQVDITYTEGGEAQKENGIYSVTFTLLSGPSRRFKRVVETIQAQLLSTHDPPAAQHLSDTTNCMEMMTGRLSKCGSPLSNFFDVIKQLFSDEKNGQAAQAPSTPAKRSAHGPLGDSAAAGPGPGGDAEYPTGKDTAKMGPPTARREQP
In short: (§1)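 In this 266-kinase specificity panel, every measurement was duplicated. Transfer of labeled phosphate from ATP to a cationic substrate was quantified after the substrate adhered to an anionic filter membrane and was scintillation-counted, then related to a full-activity control.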

PKBβ (h) = target: T2, PKBβ (h) (Homo sapiens, UniProt P31751)
T2 construct: purchased Millipore
In short: as §1

PKCμ (h) = target: T3, PKCμ (h) (Homo sapiens, UniProt Q15139)
T3 sequence (Q15139 1-912): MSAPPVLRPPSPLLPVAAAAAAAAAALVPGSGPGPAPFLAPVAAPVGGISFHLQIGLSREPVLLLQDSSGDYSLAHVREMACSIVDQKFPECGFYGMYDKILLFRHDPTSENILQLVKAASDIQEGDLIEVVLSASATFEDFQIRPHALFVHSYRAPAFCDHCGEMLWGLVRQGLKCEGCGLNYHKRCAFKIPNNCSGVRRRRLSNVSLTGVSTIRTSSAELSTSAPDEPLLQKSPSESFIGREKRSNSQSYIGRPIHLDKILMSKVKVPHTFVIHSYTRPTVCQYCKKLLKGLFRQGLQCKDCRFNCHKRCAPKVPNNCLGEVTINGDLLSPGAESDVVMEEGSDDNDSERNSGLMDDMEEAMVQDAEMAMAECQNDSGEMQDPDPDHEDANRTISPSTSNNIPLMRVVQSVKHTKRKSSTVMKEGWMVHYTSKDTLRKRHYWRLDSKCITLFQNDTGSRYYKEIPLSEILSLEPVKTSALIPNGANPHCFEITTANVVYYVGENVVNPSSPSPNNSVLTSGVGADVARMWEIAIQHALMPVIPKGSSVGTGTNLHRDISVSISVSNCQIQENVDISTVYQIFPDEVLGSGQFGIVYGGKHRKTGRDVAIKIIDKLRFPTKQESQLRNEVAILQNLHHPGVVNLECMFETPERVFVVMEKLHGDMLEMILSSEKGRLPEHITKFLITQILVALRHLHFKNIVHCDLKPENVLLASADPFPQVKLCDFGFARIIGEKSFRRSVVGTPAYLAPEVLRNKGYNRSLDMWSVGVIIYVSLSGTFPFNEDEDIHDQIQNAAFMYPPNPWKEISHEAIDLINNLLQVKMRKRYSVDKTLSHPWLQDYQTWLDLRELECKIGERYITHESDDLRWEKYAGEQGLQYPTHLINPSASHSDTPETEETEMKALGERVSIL
In short: as §1

Abl (h) = Abl (h) (Homo sapiens, UniProt P00519)
In short: as §1

LOK (h) = LOK (h) (Homo sapiens, UniProt O94804)
In short: as §1

EphB3 (h) = target: T4, EphB3 (h) (Homo sapiens, UniProt P54753)
T4 sequence (P54753 34-998): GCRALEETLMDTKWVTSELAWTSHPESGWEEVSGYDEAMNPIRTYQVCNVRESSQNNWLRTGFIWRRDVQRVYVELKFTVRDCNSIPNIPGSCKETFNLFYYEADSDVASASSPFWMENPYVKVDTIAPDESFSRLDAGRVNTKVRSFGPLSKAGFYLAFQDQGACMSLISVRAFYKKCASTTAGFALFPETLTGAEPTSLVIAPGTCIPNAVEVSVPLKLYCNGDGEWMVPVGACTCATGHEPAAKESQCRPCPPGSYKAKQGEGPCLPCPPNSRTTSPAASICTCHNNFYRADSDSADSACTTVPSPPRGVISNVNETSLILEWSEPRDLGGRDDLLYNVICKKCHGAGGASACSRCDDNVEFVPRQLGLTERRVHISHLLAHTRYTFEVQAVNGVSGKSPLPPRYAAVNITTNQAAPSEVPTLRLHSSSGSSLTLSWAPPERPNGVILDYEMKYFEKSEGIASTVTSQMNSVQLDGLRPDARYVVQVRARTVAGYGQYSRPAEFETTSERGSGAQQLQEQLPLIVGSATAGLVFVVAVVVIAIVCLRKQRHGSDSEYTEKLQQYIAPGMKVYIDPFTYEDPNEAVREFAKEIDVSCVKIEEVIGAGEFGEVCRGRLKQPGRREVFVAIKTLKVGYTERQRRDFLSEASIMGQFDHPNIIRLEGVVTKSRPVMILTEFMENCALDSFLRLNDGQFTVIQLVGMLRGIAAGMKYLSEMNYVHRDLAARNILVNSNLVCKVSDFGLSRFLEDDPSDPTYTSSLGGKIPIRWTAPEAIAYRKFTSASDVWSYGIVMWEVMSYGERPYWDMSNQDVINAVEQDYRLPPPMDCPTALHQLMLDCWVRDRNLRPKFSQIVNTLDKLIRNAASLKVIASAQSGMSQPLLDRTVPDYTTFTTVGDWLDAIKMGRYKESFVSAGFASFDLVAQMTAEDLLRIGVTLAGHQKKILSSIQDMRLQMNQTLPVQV
In short: as §1

Abl (h), sequence (P00519 whole entry): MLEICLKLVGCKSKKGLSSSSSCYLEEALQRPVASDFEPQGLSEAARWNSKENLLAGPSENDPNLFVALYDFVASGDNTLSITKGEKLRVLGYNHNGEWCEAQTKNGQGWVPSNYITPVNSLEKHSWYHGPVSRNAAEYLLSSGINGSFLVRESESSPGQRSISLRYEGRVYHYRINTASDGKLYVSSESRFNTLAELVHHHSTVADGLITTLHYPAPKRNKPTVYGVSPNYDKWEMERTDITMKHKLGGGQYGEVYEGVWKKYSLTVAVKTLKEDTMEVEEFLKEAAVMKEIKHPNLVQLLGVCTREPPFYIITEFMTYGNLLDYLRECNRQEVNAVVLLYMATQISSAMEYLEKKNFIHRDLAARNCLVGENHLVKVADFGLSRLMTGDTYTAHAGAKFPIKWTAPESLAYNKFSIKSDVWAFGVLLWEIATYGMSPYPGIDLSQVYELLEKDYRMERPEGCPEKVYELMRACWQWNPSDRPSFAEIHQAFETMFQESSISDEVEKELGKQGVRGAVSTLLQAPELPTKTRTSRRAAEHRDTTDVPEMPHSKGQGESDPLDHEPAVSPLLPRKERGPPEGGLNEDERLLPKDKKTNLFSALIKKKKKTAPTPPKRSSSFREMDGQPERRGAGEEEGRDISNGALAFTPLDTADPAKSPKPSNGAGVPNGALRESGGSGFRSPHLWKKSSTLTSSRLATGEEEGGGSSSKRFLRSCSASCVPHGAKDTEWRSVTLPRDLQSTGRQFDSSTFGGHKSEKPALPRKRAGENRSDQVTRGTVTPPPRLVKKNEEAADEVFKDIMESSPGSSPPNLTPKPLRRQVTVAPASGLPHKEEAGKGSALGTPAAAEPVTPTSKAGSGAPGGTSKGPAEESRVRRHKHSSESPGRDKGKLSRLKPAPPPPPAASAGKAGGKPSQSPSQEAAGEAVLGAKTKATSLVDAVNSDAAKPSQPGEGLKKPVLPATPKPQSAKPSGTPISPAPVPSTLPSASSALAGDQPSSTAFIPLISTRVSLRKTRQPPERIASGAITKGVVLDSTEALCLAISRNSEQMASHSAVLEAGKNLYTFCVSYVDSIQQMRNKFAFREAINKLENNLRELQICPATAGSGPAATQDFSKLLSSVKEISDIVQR
LOK (h), sequence (O94804 whole entry): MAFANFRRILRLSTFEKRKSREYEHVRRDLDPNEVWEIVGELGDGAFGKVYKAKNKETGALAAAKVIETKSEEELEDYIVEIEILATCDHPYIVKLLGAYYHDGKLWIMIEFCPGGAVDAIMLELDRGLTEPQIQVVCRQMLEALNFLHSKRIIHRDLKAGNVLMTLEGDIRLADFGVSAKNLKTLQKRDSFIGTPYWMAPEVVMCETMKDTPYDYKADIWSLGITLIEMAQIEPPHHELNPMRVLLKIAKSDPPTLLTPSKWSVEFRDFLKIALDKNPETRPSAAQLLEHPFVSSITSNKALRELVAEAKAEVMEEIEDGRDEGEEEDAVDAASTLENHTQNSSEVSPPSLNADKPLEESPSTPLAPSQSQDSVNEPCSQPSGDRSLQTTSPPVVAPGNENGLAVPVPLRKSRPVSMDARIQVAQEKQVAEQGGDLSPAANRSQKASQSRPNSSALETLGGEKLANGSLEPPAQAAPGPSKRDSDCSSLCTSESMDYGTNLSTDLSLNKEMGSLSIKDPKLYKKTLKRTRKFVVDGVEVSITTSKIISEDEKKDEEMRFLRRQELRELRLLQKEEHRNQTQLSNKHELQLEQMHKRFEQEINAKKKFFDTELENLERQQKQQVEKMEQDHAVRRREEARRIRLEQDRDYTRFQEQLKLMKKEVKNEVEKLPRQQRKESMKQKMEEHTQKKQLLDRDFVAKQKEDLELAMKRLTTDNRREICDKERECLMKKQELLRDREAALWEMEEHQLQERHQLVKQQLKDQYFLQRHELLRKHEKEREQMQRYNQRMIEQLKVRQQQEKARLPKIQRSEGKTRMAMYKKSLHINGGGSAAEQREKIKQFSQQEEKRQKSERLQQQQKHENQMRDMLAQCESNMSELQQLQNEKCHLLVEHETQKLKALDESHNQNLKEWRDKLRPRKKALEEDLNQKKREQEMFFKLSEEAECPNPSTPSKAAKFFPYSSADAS
T2 sequence (P31751 whole entry): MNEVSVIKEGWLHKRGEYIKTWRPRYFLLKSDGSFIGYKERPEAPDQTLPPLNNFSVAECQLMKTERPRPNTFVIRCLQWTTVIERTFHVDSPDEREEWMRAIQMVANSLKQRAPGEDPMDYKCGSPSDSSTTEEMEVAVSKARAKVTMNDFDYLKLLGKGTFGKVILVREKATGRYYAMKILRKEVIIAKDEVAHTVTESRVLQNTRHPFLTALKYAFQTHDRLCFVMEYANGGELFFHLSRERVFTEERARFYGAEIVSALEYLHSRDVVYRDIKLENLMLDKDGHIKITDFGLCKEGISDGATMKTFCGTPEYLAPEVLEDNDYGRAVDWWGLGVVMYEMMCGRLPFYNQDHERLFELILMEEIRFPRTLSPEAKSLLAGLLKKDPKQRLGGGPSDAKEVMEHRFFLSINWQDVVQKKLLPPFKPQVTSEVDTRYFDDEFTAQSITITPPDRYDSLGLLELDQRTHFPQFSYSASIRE

**Q.** For FAKLAARLYRKALARQLGVAA [MMI-0300], which “% activity” value (BrSK2 (h)) is on record?
**A.** 83%

**Q.** And the “% activity” value (PKBβ (h))?
**A.** 84%

**Q.** And the “% activity” value (PKCμ (h))?
**A.** 22%

**Q.** What about the “% activity” value (Abl (h)) of the same sequence?
**A.** 69%

**Q.** And the “% activity” value (LOK (h))?
**A.** 37%

**Q.** And the “% activity” value (EphB3 (h))?
**A.** 62%

**Q.** How did the “% activity” value (BrSK2 (h)) turn out when “HRRIKAWLKKIKALARQLGVAA (Mammalian) [MMI-0500]” was run?
**A.** 84%

**Q.** And the “% activity” value (PKBβ (h))?
**A.** 21%

**Q.** What about the “% activity” value (PKCμ (h)) of the same sequence?
**A.** 10%

**Q.** What about the “% activity” value (Abl (h)) of the same sequence?
**A.** 16%

**Q.** What about the “% activity” value (LOK (h)) of the same sequence?
**A.** 7%

**Q.** And the “% activity” value (EphB3 (h))?
**A.** 79%

**Q.** Which “% activity” value (BrSK2 (h)) does the source give for KAFAKLAARLYRKALARQLGVAA [MMI-0400] here?
**A.** 86%

**Q.** And the “% activity” value (PKBβ (h))?
**A.** 98%

**Q.** What about the “% activity” value (PKCμ (h)) of the same sequence?
**A.** 14%

**Q.** And the “% activity” value (Abl (h))?
**A.** 84%

**Q.** And the “% activity” value (LOK (h))?
**A.** 18%

**Q.** And the “% activity” value (EphB3 (h))?
**A.** 47%

**Q.** Which results are given for “YARAAARQARAKALNRQLGVA (Mammalian) [MMI-0200]”?
**A.** % activity (PKBβ (h)): 250%; % activity (PKCμ (h)): 73%; % activity (LOK (h)): 67%; % activity (EphB3 (h)): 128%
